Assays:
[1] = system: NFAT; assay: NFAT responsive element luciferase reporter assay in transfected Hela cells; format: cell-based, human; details: for suppression of NFAT reporter activity: co-transfection of expression plasmid with NFAT reporter
Excerpt: NFAT family transcription factors play critical roles in the pathogenesis of cardiovascular diseases, including hypertension and atherosclerosis. […] First, human Hela cells were trasfected with either empty vector plasmid or wild type IRAK-1 expression plasmid together with a NFAT responsive element-containing luciferase reporter plasmid. […] Subsequently, plasmids that express mutated IRAK-1 molecules (D340N, C203S, T113I, mutations which are present in human patients with cardiovascular diseases) have been generated.
Further experiments were performed to ask whether the C-terminal domain of IRAK-1 is involved in facilitating its suppressive regulatory function toward NFAT activity. […] Statistical significance was calculated using a t-Test for two-samples assuming unequal variances and p-values are as indicated.
In order to determine the mechanism for IRAK-1 involvement, transcription factor reporter assays were performed. In this set of experiments, NFAT reporter activity was determined in the presence of IRAK-1 or IRAK-M, a homologue of IRAK-1 (FIG. 10).

[2] = system: NFAT; assay: Co-immunoprecipitation of Flag-IRAK-1 constructs with NFAT in transfected Hela cells; format: binding, human; details: anti-Flag IP, anti-NFAT Western blot
Procedure: To further delineate which part of IRAK-1 is involved in its interaction with NFAT, experiments were performed using full-length IRAK-1 and a C-terminally truncated form (IRAK-1ΔC—see FIG. 1). Specifically, Hela cells were transfected with IRAK-1 encoding plasmids that express either the full length wild type human IRAK-1 protein or a truncated version of IRAK-1 with deletion of the C terminal region (amino acids 548 to 712 are deleted). Equal amount of cell lysates were harvested from the transfected cells and used to perform co-immunoprecipitation assays with an anti-Flag antibody. Immunoprecipitated proteins were resolved by electrophoresis, and the co-immunoprecipitated proteins were subjected to Western blot analyses using an anti-NFAT antibody.

| Molecule | suppression of NFAT reporter activity [1] | reduction of NFAT reporter luciferase activity compared with the control transfection ([1]; co-transfection with NFAT-luciferase reporter plasmid, Hela cells, control adjusted to 100%) | co-immunoprecipitation with NFAT [2] |
| --- | --- | --- | --- |
| Interleukin-1 Receptor Associated Kinase-1 (protein) MAGGPGPGEPVVPGAQHFLYEVPPWVMCRFYKVMDALEPADWCQFAALIVRDQTELRLCERSEQRTASVLWPWINRNARVADLVHILTHLQLLRARDIITAWHPPAPVVPPSTAAPRPSSISAGSEAGDWSPRKLQSSASTFLSPAFPGSQTHSESELLQVPLPVSLGPPLPSSAPSSTKSSPESPVSGLQRAHPSPFCWPFCEISQGTCNFSEELRIGEGGFGCVYRAVMRNTTYAVKRLKEEADLEWTMVKQSFLTEVEQLSRFRHPNIVDFAGYCAESGLYCLVYGFLPNGSLEDQLHLQTQACSPLSWPQRLDILLGTARAIQFLHQDSPSLIHGDIKSSNVLLDERLMPKLGDFGLARFSRFAGAKASQSSTVARTSTVRGTLAYLPEEYIKTGRLAVDTDTFSFGVVILETLAGQRAVRTQGAKTKYLKDLIEDEAEEAGVTLKSTQPTLWVGVATDAWAAPIAAQIYKKHLDSRPGPCPPQLGLALAQLACCCMHRRAKKRPPMTQVYKRLEGLQAGPPWELEVAGHGSPSPQENSYMSTTGSAQSGDEPWQPLVVTTRAPAQAAQQLQRSPNQPVESDESVPGLSATLHSWHLTPGSHPSPASFREASCTQGGTTRESSVRSSPGFQPTTMEGSPTGSSSLLSSEPPQIIINPARQKMVQKLALYEEGVLDSLQLLSSGFFPGLDLEPEKSQGPEESDEFQS | suppression of NFAT by IRAK-1 could be seen | −80% | capable of co-immunoprecipitating with NFAT |
| IRAK-M: a homologue of IRAK-1 (protein) MAGNCGARGALSAHTLLFDLPPALLGELCAVLDSCDGALGWRGLAERLSSSWLDVRHIEKYVDQGKSGTRELLWSWAQKNKTIGDLLQVLQEMGHRRAIHLITNYGAVLSPSEKSYQEGGFPNILFKETANVTVDNVLIPEHNEKGILLKSSISFQNIIEGTRNFHKDFLIGEGEIFEVYRVEIQNLTYAVKLFKQEKKMQCKKHWKRFLSELEVLLLFHHPNILELAAYFTETEKFCLIYPYMRNGTLFDRLQCVGDTAPLPWHIRIGILIGISKAIHYLHNVQPCSVICGSISSANILLDDQFQPKLTDFAMAHFRSHLEHQSCTINMTSSSSKHLWYMPEEYIRQGKLSIKTDVYSFGIVIMEVLTGCRVVLDDPKHIQLRDLLRELMEKRGLDSCLSFLDKKVPPCPRNFSAKLFCLAGRCAATRAKLRPSMDEVLNTLESTQASLYFAEDPPTSLKSFRCPSPLFLENVPSIPVEDDESQNNNLLPSDEGLRIDRMTQKTPFECSQSEVMFLSLDKKPESKRNEEACNMPSSSCEESWFPKYIVPSQDLRPYKVNIDPSSEAPGHSCRSRPVESSCSSKFSWDEYEQYKKE | did not show suppression of NFAT | – | – |
| IRAK-1b: isoform of IRAK-1 that does not possess kinase activity (protein) MAGGPGPGEPAAPGAQHFLYEVPPWVMCRFYKVMDALEPADWCQFAALIVRDQTELRLCERSGQRTASVLWPWINRNARVADLVHILTHLQLLRARDIITAWHPPAPLPSPGTTAPRPSSIPAPAEAEAWSPRKLPSSASTFLSPAFPGSQTHSGPELGLVPSPASLWPPPPSPAPSSTKPGPESSVSLLQGARPFPFCWPLCEISRGTHNFSEELKIGEGGFGCVYRAVMRNTVYAVKRLKENADLEWTAVKQSFLTEVEQLSRFRHPNIVDFAGYCAQNGFYCLVYGFLPNGSLEDRLHCQTQACPPLSWPQRLDILLGTARAIQFLHQDSPSLIHGDIKSSNVLLDERLTPKLGDFGLARFSRFAGSSPSQSSMVARTQTVRGTLAYLPEEYIKTGRLAVDTDTFSFGVVVLETLAGQRAVKTHGARTKYLKDLVEEEAEEAGVALRSTQSTLQAGLAADAWAAPIAMQIYKKHLDPRPGPCPPELGLGLGQLACCCLHRRAKRRPPMTQENSYVSSTGRAHSGAAPWQPLAAPSGASAQAAEQLQRGPNQPVESDESLGGLSAALRSWHLTPSCPLDPAPLREAGCPQGDTAGESSWGSGPGSRPTAVEGLALGSSASSSSEPPQIIINPARQKMVQKLALYEDGALDSLQLLSSSSLPGLGLEQDRQGPEESDEFQS | cannot fulfill the inhibitory function on NFAT | – | – |
| D340N: mutated IRAK-1 molecule, mutation present in human patients with cardiovascular diseases (protein, UniProt P51617 1-712, looked up, variant D340N) Interleukin-1 …: MAGGPGPGEPAAPGAQHFLYEVPPWVMCRFYKVMDALEPADWCQFAALIVRDQTELRLCERSGQRTASVLWPWINRNARVADLVHILTHLQLLRARDIITAWHPPAPLPSPGTTAPRPSSIPAPAEAEAWSPRKLPSSASTFLSPAFPGSQTHSGPELGLVPSPASLWPPPPSPAPSSTKPGPESSVSLLQGARPFPFCWPLCEISRGTHNFSEELKIGEGGFGCVYRAVMRNTVYAVKRLKENADLEWTAVKQSFLTEVEQLSRFRHPNIVDFAGYCAQNGFYCLVYGFLPNGSLEDRLHCQTQACPPLSWPQRLDILLGTARAIQFLHQDSPSLIHGNIKSSNVLLDERLTPKLGDFGLARFSRFAGSSPSQSSMVARTQTVRGTLAYLPEEYIKTGRLAVDTDTFSFGVVVLETLAGQRAVKTHGARTKYLKDLVEEEAEEAGVALRSTQSTLQAGLAADAWAAPIAMQIYKKHLDPRPGPCPPELGLGLGQLACCCLHRRAKRRPPMTQVYERLEKLQAVVAGVPGHSEAASCIPPSPQENSYVSSTGRAHSGAAPWQPLAAPSGASAQAAEQLQRGPNQPVESDESLGGLSAALRSWHLTPSCPLDPAPLREAGCPQGDTAGESSWGSGPGSRPTAVEGLALGSSASSSSEPPQIIINPARQKMVQKLALYEDGALDSLQLLSSSSLPGLGLEQDRQGPEESDEFQS | failed to suppress NFAT activity | – | – |
| C203S: mutated IRAK-1 molecule, mutation present in human patients with cardiovascular diseases (protein, UniProt P51617 1-712, looked up, variant C203S) Interleukin-1 …: MAGGPGPGEPAAPGAQHFLYEVPPWVMCRFYKVMDALEPADWCQFAALIVRDQTELRLCERSGQRTASVLWPWINRNARVADLVHILTHLQLLRARDIITAWHPPAPLPSPGTTAPRPSSIPAPAEAEAWSPRKLPSSASTFLSPAFPGSQTHSGPELGLVPSPASLWPPPPSPAPSSTKPGPESSVSLLQGARPFPFCWPLSEISRGTHNFSEELKIGEGGFGCVYRAVMRNTVYAVKRLKENADLEWTAVKQSFLTEVEQLSRFRHPNIVDFAGYCAQNGFYCLVYGFLPNGSLEDRLHCQTQACPPLSWPQRLDILLGTARAIQFLHQDSPSLIHGDIKSSNVLLDERLTPKLGDFGLARFSRFAGSSPSQSSMVARTQTVRGTLAYLPEEYIKTGRLAVDTDTFSFGVVVLETLAGQRAVKTHGARTKYLKDLVEEEAEEAGVALRSTQSTLQAGLAADAWAAPIAMQIYKKHLDPRPGPCPPELGLGLGQLACCCLHRRAKRRPPMTQVYERLEKLQAVVAGVPGHSEAASCIPPSPQENSYVSSTGRAHSGAAPWQPLAAPSGASAQAAEQLQRGPNQPVESDESLGGLSAALRSWHLTPSCPLDPAPLREAGCPQGDTAGESSWGSGPGSRPTAVEGLALGSSASSSSEPPQIIINPARQKMVQKLALYEDGALDSLQLLSSSSLPGLGLEQDRQGPEESDEFQS | failed to suppress NFAT activity | – | – |
| T113I: mutated IRAK-1 molecule, mutation present in human patients with cardiovascular diseases (protein, UniProt P51617 1-712, looked up, variant T113I) Interleukin-1 …: MAGGPGPGEPAAPGAQHFLYEVPPWVMCRFYKVMDALEPADWCQFAALIVRDQTELRLCERSGQRTASVLWPWINRNARVADLVHILTHLQLLRARDIITAWHPPAPLPSPGITAPRPSSIPAPAEAEAWSPRKLPSSASTFLSPAFPGSQTHSGPELGLVPSPASLWPPPPSPAPSSTKPGPESSVSLLQGARPFPFCWPLCEISRGTHNFSEELKIGEGGFGCVYRAVMRNTVYAVKRLKENADLEWTAVKQSFLTEVEQLSRFRHPNIVDFAGYCAQNGFYCLVYGFLPNGSLEDRLHCQTQACPPLSWPQRLDILLGTARAIQFLHQDSPSLIHGDIKSSNVLLDERLTPKLGDFGLARFSRFAGSSPSQSSMVARTQTVRGTLAYLPEEYIKTGRLAVDTDTFSFGVVVLETLAGQRAVKTHGARTKYLKDLVEEEAEEAGVALRSTQSTLQAGLAADAWAAPIAMQIYKKHLDPRPGPCPPELGLGLGQLACCCLHRRAKRRPPMTQVYERLEKLQAVVAGVPGHSEAASCIPPSPQENSYVSSTGRAHSGAAPWQPLAAPSGASAQAAEQLQRGPNQPVESDESLGGLSAALRSWHLTPSCPLDPAPLREAGCPQGDTAGESSWGSGPGSRPTAVEGLALGSSASSSSEPPQIIINPARQKMVQKLALYEDGALDSLQLLSSSSLPGLGLEQDRQGPEESDEFQS | failed to suppress NFAT activity | – | – |
| IRAK-1-ΔC: truncated version of IRAK-1 with deletion of the C terminal region (amino acids 548 to 712 are deleted) (protein, UniProt P51617 1-547, looked up, fragment) MAGGPGPGEPAAPGAQHFLYEVPPWVMCRFYKVMDALEPADWCQFAALIVRDQTELRLCERSGQRTASVLWPWINRNARVADLVHILTHLQLLRARDIITAWHPPAPLPSPGTTAPRPSSIPAPAEAEAWSPRKLPSSASTFLSPAFPGSQTHSGPELGLVPSPASLWPPPPSPAPSSTKPGPESSVSLLQGARPFPFCWPLCEISRGTHNFSEELKIGEGGFGCVYRAVMRNTVYAVKRLKENADLEWTAVKQSFLTEVEQLSRFRHPNIVDFAGYCAQNGFYCLVYGFLPNGSLEDRLHCQTQACPPLSWPQRLDILLGTARAIQFLHQDSPSLIHGDIKSSNVLLDERLTPKLGDFGLARFSRFAGSSPSQSSMVARTQTVRGTLAYLPEEYIKTGRLAVDTDTFSFGVVVLETLAGQRAVKTHGARTKYLKDLVEEEAEEAGVALRSTQSTLQAGLAADAWAAPIAMQIYKKHLDPRPGPCPPELGLGLGQLACCCLHRRAKRRPPMTQVYERLEKLQAVVAGVPGHSEAASCIPPSPQENSY | failed to suppress NFAT activity | – | – |

Reference: US20100189695A1, “IRAK-1 AS REGULATOR OF DISEASES AND DISORDERS” (priority 2008, published 2010)
